Target: T1, Soluble CDCP1 extracellular domain (CDCP1-ECD) (SEQ ID NO:30) fused to Streptavidin Binding Protein (SBP) (human, UniProt Q9H5V8 30-663)
T1 construct: also called SBP-CDCP1-ECD
T1 sequence: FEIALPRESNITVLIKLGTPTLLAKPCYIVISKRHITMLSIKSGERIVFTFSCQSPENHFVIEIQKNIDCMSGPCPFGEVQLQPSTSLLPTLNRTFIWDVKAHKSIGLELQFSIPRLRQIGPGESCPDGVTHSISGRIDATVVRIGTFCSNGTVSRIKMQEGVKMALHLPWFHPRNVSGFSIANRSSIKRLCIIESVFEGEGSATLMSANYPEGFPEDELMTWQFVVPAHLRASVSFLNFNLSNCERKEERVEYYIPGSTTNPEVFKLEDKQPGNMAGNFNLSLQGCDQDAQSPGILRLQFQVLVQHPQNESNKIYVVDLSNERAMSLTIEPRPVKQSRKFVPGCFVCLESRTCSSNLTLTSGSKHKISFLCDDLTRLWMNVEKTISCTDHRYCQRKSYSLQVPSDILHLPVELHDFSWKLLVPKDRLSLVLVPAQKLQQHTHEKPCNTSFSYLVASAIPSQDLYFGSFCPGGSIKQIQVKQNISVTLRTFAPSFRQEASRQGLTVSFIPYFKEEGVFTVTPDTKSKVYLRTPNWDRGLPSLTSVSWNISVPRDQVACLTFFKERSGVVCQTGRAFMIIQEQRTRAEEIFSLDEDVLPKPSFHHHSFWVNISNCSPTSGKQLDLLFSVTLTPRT
Assay: ELISA on captured SBP-CDCP1-ECD, ratio relative to chimeric CUB4 (chHC4)
Experimental: Soluble CDCP1 extracellular domain (CDCP1-ECD) (SEQ ID NO:30) fused to Streptavidin Binding Protein (SBP) was captured on a sreptavidine plate. To define optimal binding of the antibody to SBP-CDCP1-ECD, 384-well polystyrene plates (NUNC, streptavidin-coated) delivered by MicroCoat, Bernried, Germany (ID-No. 1734776-001) have been coated with pure and stepwise diluted HEK293 supernatant (in BSA/IMDM buffer: 100 mg/ml BSA Fraction V, Roche 10735078001, dissolved in Iscove's Modified Dulbeccos Medium). Using a calibration curve of mouse CUB4 antibodies the optimal dilution factor of the HEK293 supernatant in relation to the streptavidin binding capacity of the microtiter plate was identified. For the standard coating, SBP-CDCP1-ECD containing HEK293 supernatant was diluted (between 1:15 and 1:40) and incubated overnight at 2-8° C. (25 μl per well). Intensive washing of the microtiter plate is necessary to remove remaining unbound SBP-CDCP1-ECD.
Humanized CUB4 antibodies and/or reference antibody (chimeric (chHC4) CUB4 antibody comprising human constant region and mouse VH and VL of SEQ ID NO:1 and 2) were tested either undiluted or using a 12-step-dilution. 12.5 μl per well of each sample was incubated for 90 min at room temperature. After intensive washing using PBS-T (0.1% Tween 20 in PBS) 25 μl of either goat anti-human IgG antibodies coupled with HRP (Jackson ImmunoResearch, Code No: 109-036-098, dilution 1:10000) for human antibodies were added and incubated for 1 hour. After intensive washing the binding of the antibodies was detected with ABTS tablets (Roche Diagnostics GmbH, Cat. No.: 1112422). Absorbance at 405 nm/492 nm was measured using a standard photometer.

B1: hHC4-K2 / hLC4-e (antibody, V domains shown)
VH: EVQLVESGGGLVKPGGSLRLSCAASGFTFNSYGMSWVRQAPGKGLEWVSSISSGGSYTYYADSVKGRFTISRDNAKNSLYLQMNSLRAEDTAVYYCARHPDYDGVWFAYWGQGTLVTVSS
VL: DIQMTQSPSSLSASVGDRVTITCSVSSSVFYVHWYQQKPGKAPKLLIYDTSKLASGVPSRFSGSGSGTDFTFTISSLQPEDIATYYCQQWNSNPPTFGGGTKVEIK
Question: With B1 as the binder, how does the relative binding ratio read?
Answer: 0.07

B2: hHC4-K / hLC4-e (antibody, V domains shown)
VH: EVQLVESGGGLVKPGGSLRLSCAASGFTFNSYGMSWVRQAPGKGLEWVSSISSGGSYIYYADSVKGRFTISRDNAKNSLYLQMNSLRAEDTAVYYCARHPDYDGVWFAYWGQGTLVTVSS
VL: DIQMTQSPSSLSASVGDRVTITCSVSSSVFYVHWYQQKPGKAPKLLIYDTSKLASGVPSRFSGSGSGTDFTFTISSLQPEDIATYYCQQWNSNPPTFGGGTKVEIK
Question: Does B2 bind?
Answer: no binding

B3: hHC4-K / hLC4-f (antibody, V domains shown)
VH: EVQLVESGGGLVKPGGSLRLSCAASGFTFNSYGMSWVRQAPGKGLEWVSSISSGGSYIYYADSVKGRFTISRDNAKNSLYLQMNSLRAEDTAVYYCARHPDYDGVWFAYWGQGTLVTVSS
VL: DIQMTQSPSSLSASVGDRVTITCSVSSSVFYVHWYQQKPGKAPKLLIYDTSKLASGVPSRFSGSGSGTDYTFTISSLQPEDIATYYCQQWNSNPPTFGGGTKVEIK
Question: Does B3 bind?
Answer: no binding

B4: hHC4-a / hLC4-f (antibody, V domains shown)
VH: EVQLVESGGGLVKPGGSLRLSCAASGFTFNSYGMSWVRQAPGKGLEWVSTISSGGSYTYYPDSVKGRFTISRDNAKNSLYLQMNSLRAEDTAVYYCARHPDYDGVWFAYWGQGTLVTVSS
VL: DIQMTQSPSSLSASVGDRVTITCSVSSSVFYVHWYQQKPGKAPKLLIYDTSKLASGVPSRFSGSGSGTDYTFTISSLQPEDIATYYCQQWNSNPPTFGGGTKVEIK
Question: B4 was tested. Which relative binding ratio did it give?
Answer: 0.5

B5: hHC4-b / hLC4-e (antibody, V domains shown)
VH: EVQLVESGGGLVKPGGSLRLSCAASGFTFNSYSMNWVRQAPGKGLEWVSSISSGGSYIYYADSVKGRFTISRDNAKNSLYLQMNSLRAEDTAVYYCARHPDYDGVWFAYWGQGTLVTVSS
VL: DIQMTQSPSSLSASVGDRVTITCSVSSSVFYVHWYQQKPGKAPKLLIYDTSKLASGVPSRFSGSGSGTDFTFTISSLQPEDIATYYCQQWNSNPPTFGGGTKVEIK
Question: Does B5 bind?
Answer: no binding

B6: hHC4-b / hLC4-f (antibody, V domains shown)
VH: EVQLVESGGGLVKPGGSLRLSCAASGFTFNSYSMNWVRQAPGKGLEWVSSISSGGSYIYYADSVKGRFTISRDNAKNSLYLQMNSLRAEDTAVYYCARHPDYDGVWFAYWGQGTLVTVSS
VL: DIQMTQSPSSLSASVGDRVTITCSVSSSVFYVHWYQQKPGKAPKLLIYDTSKLASGVPSRFSGSGSGTDYTFTISSLQPEDIATYYCQQWNSNPPTFGGGTKVEIK
Question: Does B6 bind?
Answer: no binding

B7: hHC4-c / hLC4-e (antibody, V domains shown)
VH: EVQLVESGGGLVQPGGSLRLSCAASGFTFNSYGMSWVRQAPGKGLEWVATISSGGSYTYYPDSVKGRFTISRDNAKNSLYLQMNSLRAEDTAVYYCARHPDYDGVWFAYWGQGTLVTVSS
VL: DIQMTQSPSSLSASVGDRVTITCSVSSSVFYVHWYQQKPGKAPKLLIYDTSKLASGVPSRFSGSGSGTDFTFTISSLQPEDIATYYCQQWNSNPPTFGGGTKVEIK
Question: For B7, which relative binding ratio is on record?
Answer: 0.25

B8: hHC4-c / hLC4-f (antibody, V domains shown)
VH: EVQLVESGGGLVQPGGSLRLSCAASGFTFNSYGMSWVRQAPGKGLEWVATISSGGSYTYYPDSVKGRFTISRDNAKNSLYLQMNSLRAEDTAVYYCARHPDYDGVWFAYWGQGTLVTVSS
VL: DIQMTQSPSSLSASVGDRVTITCSVSSSVFYVHWYQQKPGKAPKLLIYDTSKLASGVPSRFSGSGSGTDYTFTISSLQPEDIATYYCQQWNSNPPTFGGGTKVEIK
Question: For B8, which relative binding ratio is on record?
Answer: 0.34

B9: hHC4-d / hLC4-e (antibody, V domains shown)
VH: EVQLLESGGGLVQPGGSLRLSCAASGFTFNSYGMSWVRQAPGKGLEWVSTISSGGSYTYYPDSVKGRFTISRDNSKNTLYLQMNSLRAEDTAVYYCAKHPDYDGVWFAYWGQGTLVTVSS
VL: DIQMTQSPSSLSASVGDRVTITCSVSSSVFYVHWYQQKPGKAPKLLIYDTSKLASGVPSRFSGSGSGTDFTFTISSLQPEDIATYYCQQWNSNPPTFGGGTKVEIK
Question: How did the relative binding ratio turn out when B9 was run?
Answer: 0.27

B10: hHC4-d / hLC4-f (antibody, V domains shown)
VH: EVQLLESGGGLVQPGGSLRLSCAASGFTFNSYGMSWVRQAPGKGLEWVSTISSGGSYTYYPDSVKGRFTISRDNSKNTLYLQMNSLRAEDTAVYYCAKHPDYDGVWFAYWGQGTLVTVSS
VL: DIQMTQSPSSLSASVGDRVTITCSVSSSVFYVHWYQQKPGKAPKLLIYDTSKLASGVPSRFSGSGSGTDYTFTISSLQPEDIATYYCQQWNSNPPTFGGGTKVEIK
Question: B10 was tested. Which relative binding ratio did it give?
Answer: 0.4

B11: hHC4-c / chLC4 (antibody, V domains shown)
VH: EVQLVESGGGLVQPGGSLRLSCAASGFTFNSYGMSWVRQAPGKGLEWVATISSGGSYTYYPDSVKGRFTISRDNAKNSLYLQMNSLRAEDTAVYYCARHPDYDGVWFAYWGQGTLVTVSS
VL: QIVLTQSPAIMSASPGEKVTMTCSVSSSVFYVHWYQQKSGTSPKRWIYDTSKLASGVPARFSGSGSGTSYSLTISSMEAEDAATYYCQQWNSNPPTFGGGTKLEIK
Question: Which relative binding ratio does the source give for B11 here?
Answer: 1

B12: hHC4-04 / chLC4 (antibody, V domains shown)
VH: EVQLLESGGGLVQPGGSLRLSCAASGFTFNSYGMSWVRQAPGKGLEWVSTISSGGSYTYYPDSVKGRFTISRDNSKNTLYLQMNSLRAEDTAVYYCARHPDYDGVWFAYWGQGTLVTVSS
VL: QIVLTQSPAIMSASPGEKVTMTCSVSSSVFYVHWYQQKSGTSPKRWIYDTSKLASGVPARFSGSGSGTSYSLTISSMEAEDAATYYCQQWNSNPPTFGGGTKLEIK
Question: For B12, which relative binding ratio is on record?
Answer: 0.71

B13: hHC4-H / chLC4 (antibody, V domains shown)
VH: EVQLVESGGGLVQPGGSLRLSCAASGFTFNSYGMSWVRQAPGKGLEWVATISSGGSYKYYVDSVKGRFTISRDNAKNSLYLQMNSLRAEDTAVYYCARHPDYDGVWFAYWGQGTLVTVSS
VL: QIVLTQSPAIMSASPGEKVTMTCSVSSSVFYVHWYQQKSGTSPKRWIYDTSKLASGVPARFSGSGSGTSYSLTISSMEAEDAATYYCQQWNSNPPTFGGGTKLEIK
Question: For B13, which relative binding ratio is on record?
Answer: 1.12

B14: hHC4-b / chLC4 (antibody, V domains shown)
VH: EVQLVESGGGLVKPGGSLRLSCAASGFTFNSYSMNWVRQAPGKGLEWVSSISSGGSYIYYADSVKGRFTISRDNAKNSLYLQMNSLRAEDTAVYYCARHPDYDGVWFAYWGQGTLVTVSS
VL: QIVLTQSPAIMSASPGEKVTMTCSVSSSVFYVHWYQQKSGTSPKRWIYDTSKLASGVPARFSGSGSGTSYSLTISSMEAEDAATYYCQQWNSNPPTFGGGTKLEIK
Question: Does B14 bind?
Answer: no binding

B15: hHC4-a / hLC4-K (antibody, V domains shown)
VH: EVQLVESGGGLVKPGGSLRLSCAASGFTFNSYGMSWVRQAPGKGLEWVSTISSGGSYTYYPDSVKGRFTISRDNAKNSLYLQMNSLRAEDTAVYYCARHPDYDGVWFAYWGQGTLVTVSS
VL: EIVLTQSPATLSLSPGERATLSCRASSSVFYLHWYQQKPGQAPRLWIYDTSKLASGIPARFSGSGSGTDFTLTISSLEPEDFAVYYCQQWNSNPPTFGGGTKVEIK
Question: How did the relative binding ratio turn out when B15 was run?
Answer: 0.51

B16: hHC4-03 / hLC4-I (antibody, V domains shown)
VH: EVQLLESGGGLVQPGGSLRLSCAASGFTFNSYGMSWVRQAPGKGLEWVSAISSGGSYTYYPDSVKGRFTISRDNSKNTLYLQMNSLRAEDTAVYYCAKHPDYDGVWFAYWGQGTLVTVSS
VL: EIVMTQSPATLSLSPGERATLSCRASSSVFYLSWYQQKPGQAPRLWIYDTSKLASGIPARFSGSGSGTDFTLTISSLQPEDFAVYYCQQWNSNPPTFGGGTKVEIK
Question: Does B16 bind?
Answer: no binding

B17: hHC4-03 / hLC4-L (antibody, V domains shown)
VH: EVQLLESGGGLVQPGGSLRLSCAASGFTFNSYGMSWVRQAPGKGLEWVSAISSGGSYTYYPDSVKGRFTISRDNSKNTLYLQMNSLRAEDTAVYYCAKHPDYDGVWFAYWGQGTLVTVSS
VL: EIVLTQSPATLSLSPGERATMSCRASSSVFYLHWYQQKPGQAPRLWIYDTSKLASGIPARFSGSGSGTDFTLTISSLEPEDFAVYYCQQWNSNPPTFGGGTKVEIK
Question: B17 was tested. Which relative binding ratio did it give?
Answer: 0.17

— US20110052582A1 (Hoffmann-La Roche, published 2011)
